This is an account of results in publication PMC9907207 (Nature Communications, 2023).

For the experiment, the target named is T1, D614G VFLIP spike trimer (SARS-CoV-2, ancestral with D614G, VFLIP …, stabilised).
T1 construct: also called stabilized D614G ancestral trimeric spike ("VFLIP"); trimeric spike
The experiment can be described thus: cryo-EM structure. As to conditions: both partners purified.

B1: GAR03 Fab (Fab, V domains shown)
VH: QVQLVQSGAEVKKPGASVKVSCKASGYTFSSYDINWVRQAPGQGLEWMGWMSPNSGNTGYAQKFQGRVTMTRSTSMSTAYMELSSLRSEDTAVYFCARMSSSLTNYLDYWGQGTLVTVSS
VL: SYVLTQPPSVAVAPGQTARIRCGENDIGSKNVHWYQQKSGQAPVLVVYDDSDRPSGIPERFSGSNSGNTATLTISRVEAGDEADYYCQVWDSTGDHPDVVFGGGTKLTVL
notes: also called GAR03 antibody Fab; source: ExpiCHO, purified (Talon resin, S200 SEC)
Usually stoichiometry N stands for a count of units in the complex or per binding partner. Take B1: the “stoichiometry N” value worked out at 1 Fab per spike trimer.

B2: GAR05 Fab (Fab, V domains shown)
VH: EVQLVQSGGDLVQPGGSLRLSCAVSGFTVSRNYMTWVRQAPGRGLEWVSLIYPGGSAFYADSVKGRFTISRDNSKNTLYLQMNSLRVEDTAVYYCARDPVSTGHYHDSDYWGQGTLVTVSS
VL: DIQMTQSPSALSASVGDRVTITCQASQDINKFLNWYQQKPGKAPKLLIYDASNLETGVPSRFSGGGSGTDFTFTISSLQPEDIATYYCHQYDNLPRTFGQGTKVELK
notes: also called GAR05 Fab fragment; source: ExpiCHO, purified (Talon resin, S200 SEC)
Turning to B2, the “stoichiometry N” value came out at 3 Fabs per spike trimer.
